How the values were obtained:
hFcγIIIa (human) [1] = biological target: hFcγIIIa (human) (UniProt P08637); assay: SPR (Biacore 8K), 25° C, antibody captured on nectin-4-coated chip, receptor ECD as analyte, steady-state analysis
FcγIIIaV158F (human) [2] = biological target: FcγIIIaV158F (human) (UniProt P08637); assay: as above
hFcγIIIa (human) [3] = biological target: hFcγIIIa (human) (UniProt P08637); assay: SPR (Biacore 8K), 25° C, ADC captured on nectin-4-coated chip, receptor ECD as analyte, steady-state analysis
FcγIIIaV158F (human) [4] = biological target: FcγIIIaV158F (human) (UniProt P08637); assay: as above

Kd (hFcγIIIa (human) [1]) [µM]	Kd (FcγIIIaV158F (human) [2]) [µM]	Kd (hFcγIIIa (human) [3]) [µM]	Kd (FcγIIIaV158F (human) [4]) [µM]	Substance
0.316	0.983			DRUG B (enfortumab similar antibody that specifically binds human nectin-4)
		0.429	1.21	DRUG C (enfortumab vedotin similar antibody-drug conjugate)

— US20240010701A1
